For this assay, the target named is T1, Notch1(EGF1-36) (amino acids 20-1426) (human, UniProt P46531 20-1426, biotin, chemically at the N-terminus (EZ-Link Sulfo-NHS-Biotin)).
T1 construct: NOTCH1, human, EGF1-36, amino acids 20-1426; also called NOTCH1 ECD; source: Tni insect cells (baculovirus), purified (nickel chromatography with 1 mM calcium, SEC), chemically biotinylated
The assay can be described thus: SPR; ~300 RU biotinylated NOTCH1(EGF1-36) on a streptavidin chip; DLL4(N-5) or DLK1 ECD as analyte; HBS-P20-BSA with 1 mM CaCl2; reference: ZNRF3 ECD. The following applies: both partners purified. Background: SPR reads the build-up and loss of mass on a sensor chip optically.

B1: Human DLL4 (N-EGF5, amino acids 27-400) (domain or fragment, UniProt Q9NR61 27-400, looked up)
chain: SGVFQLQLQEFINERGVLASGRPCEPGCRTFFRVCLKHFQAVVSPGPCTFGTVSTPVLGTNSFAVRDDSSGGGRNPLQLPFNFTWPGTFSLIIEAWHAPGDDLRPEALPPDALISKIAIQGSLAVGQNWLLDEQTSTLTRLRYSYRVICSDNYYGDNCSRLCKKRNDHFGHYVCQPDGNLSCLPGWTGEYCQQPICLSGCHEQNGYCSKPAECLCRPGWQGRLCNECIPHNGCRHGTCSTPWQCTCDEGWGGLFCDQDLNYCTHHSPCKNGATCSNSGQRSYTCTCRPGYTGVDCELELSECDSNPCRNGGSCKDQEDGYHCLCPPGYYGLHCEHSTLSCADSPCFNGGSCRERNQGANYACECPPNFTGSNCE
notes: Delta-like 4 (DLL4), human, N-EGF5, amino acids 27-400; also called DLL4(N-5); source: Tni insect cells (baculovirus), purified (nickel chromatography, SEC)
With B1, the binding result is “binds”.

The values are drawn from article PMC12216052 (Nature Communications, 2025).
